B1: modified Fc (other)
Fc polypeptide (CH2-CH3): PCPAPELLGGPSVFLFPPKPKDTLMISRPPEVTCVVVDVSHEDPEVKFNWYVDGVEVHNAKTKPREEQYNSTYRVVSVLTVLHQDWLNGKEYKCKVSNKALPAPIEKTISKAKGQPREPQVYTLPPSRDELTKNQVSLTCLVKGFYPSDIAVEWESNGQPENNYKTTPPVLDSDGSFFLYSKLTVDKSRWQQGNVFSCSVMHEALTRHFTQKILSLSPGK
notes: also called PN04-90 Fc
B2: Recombinant human TRIM21 PRYSPRY domain (His-tagged, expressed in E. coli BL21 (DE3)) (receptor)
chain: VHITLDPDTANPWLILSEDRRQVRLGDTQQSIPGNEERFDSYPMVLGAQHFHSGKHYWEVDVTGKEAWDLGVCRDSVRRKGHFLLSSKSGFWTIWLWNKQKYEAGTYPQTPLHLQVPPCQVGIFLDYEAGMVSFYNITDHGSLIYSFSECAFTGPLRPFFSPGFNDGGKNTAPLTLCPLNIGSQGSTDY
modifications: biotinylated when used as bait for biopanning and in the ELISAs (sites not given)
notes: Purified on Ni-NTA and by gel filtration; Analyte in SPR; biotinylated form used in biopanning and ELISA; also called PRYSPRY domain of TRIM21; bait protein; not shown: N-terminal His-tag of the pQE-2 vector
B3: Fc region SN 1 of FIG. 13 (IgG1 256P/433S/434H/440G) (other)
chain: PCPAPELLGGPSVFLFPPKPKDTLMISRPPEVTCVVVDVSHEDPEVKFNWYVDGVEVHNAKTKPREEQYNSTYRVVSVLTVLHQDWLNGKEYKCKVSNKALPAPIEKTISKAKGQPREPQVYTLPPSRDELTKNQVSLTCLVKGFYPSDIAVEWESNGQPENNYKTTPPVLDSDGSFFLYSKLTVDKSRWQQGNVFSCSVMHEALSHHYTQKGLSLSPGK
B4: Fc region SN 46 of FIG. 13 (IgG1 256P/433V/434R) (other)
chain: PCPAPELLGGPSVFLFPPKPKDTLMISRPPEVTCVVVDVSHEDPEVKFNWYVDGVEVHNAKTKPREEQYNSTYRVVSVLTVLHQDWLNGKEYKCKVSNKALPAPIEKTISKAKGQPREPQVYTLPPSRDELTKNQVSLTCLVKGFYPSDIAVEWESNGQPENNYKTTPPVLDSDGSFFLYSKLTVDKSRWQQGNVFSCSVMHEALVRHYTQKSLSLSPGK
B5: Fc region SN 9 of FIG. 13 (IgG1 256P/433V/434H) (other)
chain: PCPAPELLGGPSVFLFPPKPKDTLMISRPPEVTCVVVDVSHEDPEVKFNWYVDGVEVHNAKTKPREEQYNSTYRVVSVLTVLHQDWLNGKEYKCKVSNKALPAPIEKTISKAKGQPREPQVYTLPPSRDELTKNQVSLTCLVKGFYPSDIAVEWESNGQPENNYKTTPPVLDSDGSFFLYSKLTVDKSRWQQGNVFSCSVMHEALVHHYTQKSLSLSPGK
B6: Fc region SN 10 of FIG. 13 (IgG1 256P/433V/434H/440R) (other)
chain: PCPAPELLGGPSVFLFPPKPKDTLMISRPPEVTCVVVDVSHEDPEVKFNWYVDGVEVHNAKTKPREEQYNSTYRVVSVLTVLHQDWLNGKEYKCKVSNKALPAPIEKTISKAKGQPREPQVYTLPPSRDELTKNQVSLTCLVKGFYPSDIAVEWESNGQPENNYKTTPPVLDSDGSFFLYSKLTVDKSRWQQGNVFSCSVMHEALVHHYTQKRLSLSPGK
B7: Fc region SN 92 of FIG. 13 (IgG1 256A/436F/440M) (other)
chain: PCPAPELLGGPSVFLFPPKPKDTLMISRAPEVTCVVVDVSHEDPEVKFNWYVDGVEVHNAKTKPREEQYNSTYRVVSVLTVLHQDWLNGKEYKCKVSNKALPAPIEKTISKAKGQPREPQVYTLPPSRDELTKNQVSLTCLVKGFYPSDIAVEWESNGQPENNYKTTPPVLDSDGSFFLYSKLTVDKSRWQQGNVFSCSVMHEALHNHFTQKMLSLSPGK
B8: Fc region SN 2 of FIG. 13 (IgG1 256P/433S/434H) (other)
chain: PCPAPELLGGPSVFLFPPKPKDTLMISRPPEVTCVVVDVSHEDPEVKFNWYVDGVEVHNAKTKPREEQYNSTYRVVSVLTVLHQDWLNGKEYKCKVSNKALPAPIEKTISKAKGQPREPQVYTLPPSRDELTKNQVSLTCLVKGFYPSDIAVEWESNGQPENNYKTTPPVLDSDGSFFLYSKLTVDKSRWQQGNVFSCSVMHEALSHHYTQKSLSLSPGK
B9: Fc region SN 32 of FIG. 13 (IgG1 256P/433T/434R) (other)
chain: PCPAPELLGGPSVFLFPPKPKDTLMISRPPEVTCVVVDVSHEDPEVKFNWYVDGVEVHNAKTKPREEQYNSTYRVVSVLTVLHQDWLNGKEYKCKVSNKALPAPIEKTISKAKGQPREPQVYTLPPSRDELTKNQVSLTCLVKGFYPSDIAVEWESNGQPENNYKTTPPVLDSDGSFFLYSKLTVDKSRWQQGNVFSCSVMHEALTRHYTQKSLSLSPGK

From patent US20220340684A1 (AGENCY FOR SCIENCE TECHNOLOGY AND RESEARCH, published 2022) come the findings set out here.

In the first assay the target is B2. Put plainly: ELISA, 0.125 µg/ml biotinylated PRYSPRY domain. For orientation: ELISA stands for enzyme-linked immunosorbent assay.
For B1, the binding result was “binds”.

The next assay addresses T1, Wildtype IgG1 Fc (reference in the SPR table of Example 4) (human, UniProt P0DOX5 230-449 = IgG part, limits assumed).
T1 construct: also called wildtype Fc
Put plainly: SPR as in Example 1.10, TRIM21 PRYSPRY domain.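 Further: antibodies amine-coupled to a GLC chip on a ProteON XPR36, TRIM21 flowed at five concentrations in PBS with 0.05% Tween-20, kinetics fitted to a Langmuir 1:1 model.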
In the case of B2, the Kd (as a rule, the equilibrium constant for the complex coming apart) was found to be 126 nM; the off-rate (koff) (in general, the first-order rate constant of dissociation) came out at 0.0812 s⁻¹; the kon (usually the rate constant with which the complex forms) was 647000 M⁻¹ s⁻¹.

The next assay has as its target B2. Description: SPR as in Example 1.10, TRIM21 PRYSPRY domain.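 Further: antibodies amine-coupled to a GLC chip on a ProteON XPR36, TRIM21 flowed at five concentrations in PBS with 0.05% Tween-20, kinetics fitted to a Langmuir 1:1 model.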
On to B3, for which the dissociation constant Kd turned out to be 0.055 nM, the off-rate constant (koff) worked out at 0.000388 s⁻¹ and the kon came out at 7.05e+06 M⁻¹ s⁻¹.

Turning to B4, the dissociation constant Kd amounted to 0.169 nM, the koff is 0.000124 s⁻¹ and the kon came out at 730000 M⁻¹ s⁻¹.

As for B5, the dissociation constant Kd stood at 0.0957 nM, the koff is 0.000481 s⁻¹ and the on-rate constant (kon) was 5.03e+06 M⁻¹ s⁻¹.

As to B6, the equilibrium dissociation constant (Kd) came to 0.892 nM, the koff is 0.00046 s⁻¹ and the kon is 515000 M⁻¹ s⁻¹.

As for B7, the dissociation constant Kd came out at 3.68 nM, the koff stood at 0.0145 s⁻¹ and the on-rate constant (kon) was 3.94e+06 M⁻¹ s⁻¹.

For B8, the Kd came to 0.156 nM, the koff was found to be 0.000727 s⁻¹ and the kon is 4.66e+06 M⁻¹ s⁻¹.

Take B9: the Kd was found to be 0.498 nM, the off-rate (koff) was 0.00053 s⁻¹ and the association rate constant (kon) was 1.06e+06 M⁻¹ s⁻¹.
